Measured values as given in US20250059270A1 (SESEN BIO, published 2025).
Blank lines part the entries; values can stand above or below the binder they belong to.

Legend:
human IL-6 [1] = molecular target: T1, human IL-6 (human, UniProt P05231 30-212); assay: yeast surface display of Fab, flow cytometry (APC-A = bound biotinylated IL-6, FITC-A = display) after overnight competition with 2 µM IL-6
T1 construct: Recombinant protein was R&D Systems 206-IL/CF where stated; It was biotinylated in the yeast display assays and amine-coupled to the chip in SPR; also called free IL-6; biotinylated human IL-6

rabbit IL-6 = molecular target: T2, rabbit IL-6 (rabbit, UniProt Q9MZR1 27-241, limits assumed); assay: statement in the rabbit PK example; no assay named
T2 sequence (looked up): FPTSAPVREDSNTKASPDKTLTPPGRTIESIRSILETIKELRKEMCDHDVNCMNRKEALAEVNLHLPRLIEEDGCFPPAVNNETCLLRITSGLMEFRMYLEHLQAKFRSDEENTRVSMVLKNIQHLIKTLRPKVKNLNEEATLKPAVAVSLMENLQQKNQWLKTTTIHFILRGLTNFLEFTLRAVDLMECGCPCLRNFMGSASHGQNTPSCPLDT

human IL-6 [2] = molecular target: T1, human IL-6; assay: cell-based or functional assay
human IL-6 [3] = molecular target: T1, human IL-6; assay: cell-based or functional assay; remark: listed apart in the source
hyper IL-6 = assay: cell-based or functional assay
human IL-6 [4] = molecular target: T1, human IL-6; assay: functional epitope mapping by ELISA

Fold increase in binding/display over wt (human IL-6 [1]): 1.92 fold
B1: EBI-029 Fab variant I51T/S55G (Fab, V domains shown)
VH: QVQLVQSGAEVKKPGSSVKVSCKASGYALSNYLIEWVRQAPGQGLEWMGVTTPGGGTINYAQKFQGRVTITADESTSTAYMELSSLRSEDTAVYYCARSRWDPLYYYALEYWGQGTTVTVSS
VL: DIVMTQSPDSLAVSLGERATINCRASESVDNYGIPFMNWYQQKPGQPPKLLIYAASNRGSGVPDRFSGSGSGTDFTLTISSLQAEDVAVYYCQQSEEVPLTFGQGTKLEIKR

Fold increase in binding/display over wt (human IL-6 [1]): 4 fold
B2: EBI-030 Fab (A28V/S30P/I51T/S55G) (Fab, V domains shown)
VH: QVQLVQSGAEVKKPGSSVKVSCKASGYVLPNYLIEWVRQAPGQGLEWMGVTTPGGGTINYAQKFQGRVTITADESTSTAYMELSSLRSEDTAVYYCARSRWDPLYYYALEYWGQGTTVTVSS
VL: DIVMTQSPDSLAVSLGERATINCRASESVDNYGIPFMNWYQQKPGQPPKLLIYAASNRGSGVPDRFSGSGSGTDFTLTISSLQAEDVAVYYCQQSEEVPLTFGQGTKLEIKR
notes: IgG1 Fab; also called A28V/S30P/I51T/S55G (EBI-030)

Fold increase in binding/display over wt (human IL-6 [1]): 2.52 fold
B3: EBI-029 Fab variant S30P/I51T/S55G (Fab, V domains shown)
VH: QVQLVQSGAEVKKPGSSVKVSCKASGYALPNYLIEWVRQAPGQGLEWMGVTTPGGGTINYAQKFQGRVTITADESTSTAYMELSSLRSEDTAVYYCARSRWDPLYYYALEYWGQGTTVTVSS
VL: DIVMTQSPDSLAVSLGERATINCRASESVDNYGIPFMNWYQQKPGQPPKLLIYAASNRGSGVPDRFSGSGSGTDFTLTISSLQAEDVAVYYCQQSEEVPLTFGQGTKLEIKR

binding result (rabbit IL-6): no binding
B4: EBI-029 Fab (020 Fab) (Fab, V domains shown)
VH: QVQLVQSGAEVKKPGSSVKVSCKASGYALSNYLIEWVRQAPGQGLEWMGVITPGSGTINYAQKFQGRVTITADESTSTAYMELSSLRSEDTAVYYCARSRWDPLYYYALEYWGQGTTVTVSS
VL: DIVMTQSPDSLAVSLGERATINCRASESVDNYGIPFMNWYQQKPGQPPKLLIYAASNRGSGVPDRFSGSGSGTDFTLTISSLQAEDVAVYYCQQSEEVPLTFGQGTKLEIKR
notes: 018 Fab heavy chain with DKTHT added at the C-terminus; also called the 020 molecule; WT (EBI-029)

Fold increase in binding/display over wt (human IL-6 [1]): 3.1 fold
B5: EBI-029 Fab variant A28V/I51T/S55G (Fab, V domains shown)
VH: QVQLVQSGAEVKKPGSSVKVSCKASGYVLSNYLIEWVRQAPGQGLEWMGVTTPGGGTINYAQKFQGRVTITADESTSTAYMELSSLRSEDTAVYYCARSRWDPLYYYALEYWGQGTTVTVSS
VL: DIVMTQSPDSLAVSLGERATINCRASESVDNYGIPFMNWYQQKPGQPPKLLIYAASNRGSGVPDRFSGSGSGTDFTLTISSLQAEDVAVYYCQQSEEVPLTFGQGTKLEIKR

binding result (rabbit IL-6): no binding | IC50, HEK-Blue IL6 reporter cells, 20 pM IL-6 (human IL-6 [2]): 47 pM
B6: EBI-029 IgG2 (antibody)
heavy: QVQLVQSGAEVKKPGSSVKVSCKASGYALSNYLIEWVRQAPGQGLEWMGVITPGSGTINYAQKFQGRVTITADESTSTAYMELSSLRSEDTAVYYCARSRWDPLYYYALEYWGQGTTVTVSSASTKGPSVFPLAPCSRSTSESTAALGCLVKDYFPEPVTVSWNSGALTSGVHTFPAVLQSSGLYSLSSVVTVPSSNFGTQTYTCNVDHKPSNTKVDKTVERKCCVECPPCPAPPVAGPSVFLFPPKPKDTLMISRTPEVTCVVVDVSHEDPEVQFNWYVDGVEVHNAKTKPREEQFNSTFRVVSVLTVVHQDWLNGKEYKCKVSNKGLPAPIEKTISKTKGQPREPQVYTLPPSREEMTKNQVSLTCLVKGFYPSDIAVEWESNGQPENNYKTTPPMLDSDGSFFLYSKLTVDKSRWQQGNVFSCSVMHEALHNHYTQKSLSLSPGK
light: DIVMTQSPDSLAVSLGERATINCRASESVDNYGIPFMNWYQQKPGQPPKLLIYAASNRGSGVPDRFSGSGSGTDFTLTISSLQAEDVAVYYCQQSEEVPLTFGQGTKLEIKRTVAAPSVFIFPPSDEQLKSGTASVVCLLNNFYPREAKVQWKVDNALQSGNSQESVTEQDSKDSTYSLSSTLTLSKADYEKHKVYACEVTHQGLSSPVTKSFNRGEC
notes: also called 018IgG2

binding result (rabbit IL-6): no binding | IC50, HEK-Blue IL6 reporter cells, 20 pM IL-6 (EBI-030 CHO, stable CHO pool) (human IL-6 [2]): 1.4 pM | IC50, HEK-Blue IL6 reporter cells, 20 pM IL-6 (EBI-030 from HEK-6E cells) (human IL-6 [2]): 0.9 pM | IC50, fold less than that of EBI-029, HEK-Blue IL6 (EBI-030 produced in HEK cells) (human IL-6 [3]): > 50 fold | IC90, fold less than that of EBI-029, HEK-Blue IL6 (EBI-030 produced in HEK cells) (human IL-6 [3]): ~4000 fold | fold decrease in IC50 compared with EBI-029, HEK-Blue IL6 (human IL-6 [3]): ~50 fold | fold decrease in IC90 compared with EBI-029, HEK-Blue IL6 (human IL-6 [3]): > 100 fold
B7: EBI-030 IgG2 (antibody)
heavy: QVQLVQSGAEVKKPGSSVKVSCKASGYVLPNYLIEWVRQAPGQGLEWMGVTTPGGGTINYAQKFQGRVTITADESTSTAYMELSSLRSEDTAVYYCARSRWDPLYYYALEYWGQGTTVTVSSASTKGPSVFPLAPCSRSTSESTAALGCLVKDYFPEPVTVSWNSGALTSGVHTFPAVLQSSGLYSLSSVVTVPSSNFGTQTYTCNVDHKPSNTKVDKTVERKCCVECPPCPAPPVAGPSVFLFPPKPKDTLMISRTPEVTCVVVDVSHEDPEVQFNWYVDGVEVHNAKTKPREEQFNSTFRVVSVLTVVHQDWLNGKEYKCKVSNKGLPAPIEKTISKTKGQPREPQVYTLPPSREEMTKNQVSLTCLVKGFYPSDIAVEWESNGQPENNYKTTPPMLDSDGSFFLYSKLTVDKSRWQQGNVFSCSVMHEALHNHYTQKSLSLSPGK
light: DIVMTQSPDSLAVSLGERATINCRASESVDNYGIPFMNWYQQKPGQPPKLLIYAASNRGSGVPDRFSGSGSGTDFTLTISSLQAEDVAVYYCQQSEEVPLTFGQGTKLEIKRTVAAPSVFIFPPSDEQLKSGTASVVCLLNNFYPREAKVQWKVDNALQSGNSQESVTEQDSKDSTYSLSSTLTLSKADYEKHKVYACEVTHQGLSSPVTKSFNRGEC

binding result (rabbit IL-6): no binding
B8: EBI-029 IgG2-H311A (antibody)
heavy: QVQLVQSGAEVKKPGSSVKVSCKASGYALSNYLIEWVRQAPGQGLEWMGVITPGSGTINYAQKFQGRVTITADESTSTAYMELSSLRSEDTAVYYCARSRWDPLYYYALEYWGQGTTVTVSSASTKGPSVFPLAPCSRSTSESTAALGCLVKDYFPEPVTVSWNSGALTSGVHTFPAVLQSSGLYSLSSVVTVPSSNFGTQTYTCNVDHKPSNTKVDKTVERKCCVECPPCPAPPVAGPSVFLFPPKPKDTLMISRTPEVTCVVVDVSHEDPEVQFNWYVDGVEVHNAKTKPREEQFNSTFRVVSVLTVVAQDWLNGKEYKCKVSNKGLPAPIEKTISKTKGQPREPQVYTLPPSREEMTKNQVSLTCLVKGFYPSDIAVEWESNGQPENNYKTTPPMLDSDGSFFLYSKLTVDKSRWQQGNVFSCSVMHEALHNHYTQKSLSLSPGK
light: DIVMTQSPDSLAVSLGERATINCRASESVDNYGIPFMNWYQQKPGQPPKLLIYAASNRGSGVPDRFSGSGSGTDFTLTISSLQAEDVAVYYCQQSEEVPLTFGQGTKLEIKRTVAAPSVFIFPPSDEQLKSGTASVVCLLNNFYPREAKVQWKVDNALQSGNSQESVTEQDSKDSTYSLSSTLTLSKADYEKHKVYACEVTHQGLSSPVTKSFNRGEC
notes: also called EBI-029-H311A

binding result (rabbit IL-6): no binding | IC50, HEK-Blue IL6 reporter cells, 20 pM IL-6 (human IL-6 [2]): 0.6 pM | IC50, trans-signaling, HEK-Blue IL6 cells, 200 pM hyper IL-6 (hyper IL-6): 32 pM | IC50, cis-signaling, HEK-Blue IL6 cells, 20 pM free IL-6 (human IL-6 [3]): 14.2 pM | IC50, fold less than that of EBI-029, HEK-Blue IL6 (human IL-6 [3]): > 75 fold | IC90, fold less than that of EBI-029, HEK-Blue IL6 (human IL-6 [3]): ~350 fold | fold decrease in IC50 compared with EBI-029, HEK-Blue IL6 (human IL-6 [3]): ~50 fold | fold decrease in IC90 compared with EBI-029, HEK-Blue IL6 (human IL-6 [3]): > 100 fold | fold greater potency than tocilizumab, cis-signaling, HEK-Blue IL6 cells (human IL-6 [3]): > 900 fold
B9: EBI-031 (EBI-030 IgG2-H311A) (antibody)
heavy: QVQLVQSGAEVKKPGSSVKVSCKASGYVLPNYLIEWVRQAPGQGLEWMGVTTPGGGTINYAQKFQGRVTITADESTSTAYMELSSLRSEDTAVYYCARSRWDPLYYYALEYWGQGTTVTVSSASTKGPSVFPLAPCSRSTSESTAALGCLVKDYFPEPVTVSWNSGALTSGVHTFPAVLQSSGLYSLSSVVTVPSSNFGTQTYTCNVDHKPSNTKVDKTVERKCCVECPPCPAPPVAGPSVFLFPPKPKDTLMISRTPEVTCVVVDVSHEDPEVQFNWYVDGVEVHNAKTKPREEQFNSTFRVVSVLTVVAQDWLNGKEYKCKVSNKGLPAPIEKTISKTKGQPREPQVYTLPPSREEMTKNQVSLTCLVKGFYPSDIAVEWESNGQPENNYKTTPPMLDSDGSFFLYSKLTVDKSRWQQGNVFSCSVMHEALHNHYTQKSLSLSPGK
light: DIVMTQSPDSLAVSLGERATINCRASESVDNYGIPFMNWYQQKPGQPPKLLIYAASNRGSGVPDRFSGSGSGTDFTLTISSLQAEDVAVYYCQQSEEVPLTFGQGTKLEIKRTVAAPSVFIFPPSDEQLKSGTASVVCLLNNFYPREAKVQWKVDNALQSGNSQESVTEQDSKDSTYSLSSTLTLSKADYEKHKVYACEVTHQGLSSPVTKSFNRGEC
notes: also called EBI-030-H311A

binding result (human IL-6 [4]): binds
B10: murine 64 antibody (hybridoma 64, subclone 64.58) (antibody, V domains shown)
VH: QVQLQQSGAELVRPGTSVKVSCKASGYAFSNYLIEWVKQRPGQGLEWIGVITPGSGTINYNEKFKGKAVLTADKSSSTVYMQLSSLTSDDSAVYFCAKSRWDPLYYYALEYWGQGTSVTVSS
VL: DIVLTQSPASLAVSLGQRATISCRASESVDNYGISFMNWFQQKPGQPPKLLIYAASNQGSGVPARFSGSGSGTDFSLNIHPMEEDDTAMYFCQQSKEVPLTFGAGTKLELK
notes: Murine monoclonal from a hybridoma; also called m64
